± gives the uncertainty stated by the source.
Assay: self-splicing fitness, log relative to wild type (ln ratio); higher = more splicing; Tetrahymena group I intron in knt gene, E. coli kanamycin selection, DiMSum; sequences stand for … in CUCUCU…GGAGGGAAAAGUUAUCAGGCAUGCACCUGGUAGCUAGUCUUUAAACCAAUAGAUUGCAUCGGUUUAAAAGGCAAGACCGUCAAAUUGCGGGAAAGGGGUCAACAGCCGUUCAGUACCAAGUCUCAGGGGAAACUUUGAGAUGGCCUUGCAAAGGGUAUGGUAAUAAGCUGACGGACAUGGUCCUAACCACGCAGCCAAGUCCUAAGUCAACAGAUCUUCUGUUGAUAUGGAUGCAGUUCACAGACUAAAUGUCGGUCGGGGAAGAUGUAUUCUUCUCAUAAGAUAUAGUCGGACCUCUCCUUAAUGGGAGCUAGCGGAUGAAGUGAUGCAACACUGGAGCCGCUGGGAACUAAUUUGUAUGCGAAAGUAUAUUGAUUAGUUUUGGAGUACUCGUGGUCG
Method in brief: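 Fitness was computed with DiMSum as the error-weighted combination of replicate fold changes, kanamycin versus none, each normalised to wild type. The library randomised all eight intron nucleotides of the P1ex region, with the intron placed in the knt kanamycin-resistance gene on pET-22b(+) in E. coli BL21(DE3). Six replicate transformations were grown overnight at 37°C or 30°C on LB agar with or without 25 μg/mL kanamycin, plus 100 μg/mL carbenicillin, 50 μM IPTG and 0.2% rhamnose. Pooled colonies were amplicon-sequenced on an Illumina HiSeq 2500.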

Sequence | self-splicing fitness (ln) (37 °C) | self-splicing fitness (ln) (30 °C)
ACGGAGCAAUAUUACGCGAU | -1.2 ± 0.17 | –
AAACAGCAAUAUUACGUAAU | -0.491 ± 0.064 | -1.79 ± 0.051
GGGUAGCAAUAUUACGCGUA | -0.35 ± 0.11 | -0.49 ± 0.1
CAUAAGCAAUAUUACGGUAG | -0.382 ± 0.089 | -1.06 ± 0.087
CCCUAGCAAUAUUACGCAAU | -2.02 ± 0.27 | -3.56 ± 0.23
UUUUAGCAAUAUUACGUUUA | -1.05 ± 0.16 | -1.94 ± 0.22
AAUCAGCAAUAUUACGUUGA | -0.22 ± 0.1 | -0.828 ± 0.086
AACAAGCAAUAUUACGUGCU | -1.51 ± 0.14 | -2.57 ± 0.16
UUCGAGCAAUAUUACGGCUU | -2.65 ± 0.33 | -3.14 ± 0.18
UACAAGCAAUAUUACGGGCA | 0.152 ± 0.072 | -0.0705 ± 0.063
AGUUAGCAAUAUUACGGAAU | -2 ± 0.43 | -3.73 ± 0.46
AUCGAGCAAUAUUACGGAAU | -1.79 ± 0.18 | -3.47 ± 0.21
UUGUAGCAAUAUUACGCGCU | -0.976 ± 0.11 | -2.05 ± 0.16
ACAAAGCAAUAUUACGAUAC | -2.29 ± 0.16 | -2.89 ± 0.2
AAGGAGCAAUAUUACGGCAU | -2.05 ± 0.23 | -2.77 ± 0.18
ACGUAGCAAUAUUACGCCGG | -0.915 ± 0.17 | -1.28 ± 0.11
GUAAAGCAAUAUUACGGCUU | 0.219 ± 0.14 | -0.183 ± 0.11
CCCGAGCAAUAUUACGACAG | -2.46 ± 0.41 | –
AAUGAGCAAUAUUACGAAUC | -1.74 ± 0.3 | –
CCGAAGCAAUAUUACGCAUC | – | -4.21 ± 0.34
UUUAAGCAAUAUUACGGCCU | -0.999 ± 0.17 | -1.69 ± 0.14
UUCGAGCAAUAUUACGGUAG | -0.753 ± 0.14 | -3.12 ± 0.31
UAGAAGCAAUAUUACGUUAU | -2.76 ± 0.12 | -3.81 ± 0.14
GCGAAGCAAUAUUACGAUAG | -1.51 ± 0.17 | -2.35 ± 0.14
UGGCAGCAAUAUUACGCCCA | 0.585 ± 0.24 | -1.66 ± 0.15

Sequence | self-splicing fitness (ln) (37 °C) | self-splicing fitness (ln) (30 °C)
GGUCAGCAAUAUUACGUGUC | -0.0483 ± 0.13 | -0.998 ± 0.12
CCUCAGCAAUAUUACGUCGC | -3.77 ± 0.36 | –
UGACAGCAAUAUUACGGUGG | -0.331 ± 0.082 | -1.56 ± 0.064
CAAAAGCAAUAUUACGAUAA | -0.871 ± 0.099 | -2.29 ± 0.1
UCCCAGCAAUAUUACGGAUA | -0.799 ± 0.084 | -1.51 ± 0.093
CUCAAGCAAUAUUACGGGGA | -1.33 ± 0.17 | -2.01 ± 0.15
GACGAGCAAUAUUACGCGAC | -1.04 ± 0.27 | -2.09 ± 0.26
GGAAAGCAAUAUUACGGACG | 0.281 ± 0.1 | -0.879 ± 0.087
CGGAAGCAAUAUUACGCGUU | -2.9 ± 0.33 | -3.9 ± 0.34
GUCUAGCAAUAUUACGUUAC | -0.771 ± 0.096 | -0.99 ± 0.099
GGGUAGCAAUAUUACGAGUC | -0.588 ± 0.17 | -3.63 ± 0.26
CACAAGCAAUAUUACGAGGG | -2.48 ± 0.14 | -2.28 ± 0.12
GAGCAGCAAUAUUACGACAG | -2.6 ± 0.27 | -3.25 ± 0.21
GUGAAGCAAUAUUACGUAAC | -1.23 ± 0.31 | -1.99 ± 0.26
GACCAGCAAUAUUACGGAAC | -0.504 ± 0.11 | -0.88 ± 0.098
UUGAAGCAAUAUUACGUUUC | -3.3 ± 0.32 | -3.35 ± 0.2
CUAAAGCAAUAUUACGCUGA | -2.95 ± 0.29 | -3.03 ± 0.18
UUGUAGCAAUAUUACGUGAC | -1.86 ± 0.33 | -2.34 ± 0.26
AGUGAGCAAUAUUACGUUUU | -2.57 ± 0.15 | -3.26 ± 0.14
UCCGAGCAAUAUUACGAAAU | – | -4.17 ± 0.34
UAUUAGCAAUAUUACGUAUG | -0.344 ± 0.17 | -1.65 ± 0.15
CAUUAGCAAUAUUACGAAAG | -0.567 ± 0.13 | -0.84 ± 0.12
GACGAGCAAUAUUACGUACA | -2.26 ± 0.2 | -3.04 ± 0.27
ACAAAGCAAUAUUACGGCAC | -0.954 ± 0.12 | -1.61 ± 0.079
GGAAAGCAAUAUUACGAGAU | -2.17 ± 0.29 | -2.44 ± 0.17

Sequence | self-splicing fitness (ln) (37 °C) | self-splicing fitness (ln) (30 °C)
AACAAGCAAUAUUACGUGCA | -0.28 ± 0.065 | -0.969 ± 0.048
AAUGAGCAAUAUUACGGGAA | -3.04 ± 0.33 | -2.61 ± 0.26
AUCGAGCAAUAUUACGGACA | -1.41 ± 0.42 | -1.98 ± 0.38
ACCUAGCAAUAUUACGGCAC | -0.492 ± 0.07 | -0.933 ± 0.062
ACGAAGCAAUAUUACGGACC | -0.661 ± 0.26 | -0.399 ± 0.17
CUCAAGCAAUAUUACGAAUC | -1.91 ± 0.3 | –
GGAUAGCAAUAUUACGAACG | -0.196 ± 0.18 | 0.209 ± 0.14
GGCAAGCAAUAUUACGUUCC | -0.714 ± 0.14 | -1.43 ± 0.11
CAUGAGCAAUAUUACGCUGU | -1.14 ± 0.23 | -3.14 ± 0.23
GAAUAGCAAUAUUACGCGUA | -0.973 ± 0.13 | -2.17 ± 0.16
CCGCAGCAAUAUUACGUACG | 0.254 ± 0.069 | -0.247 ± 0.058
GUGAAGCAAUAUUACGAUUU | 0.316 ± 0.091 | -0.586 ± 0.051
GCCGAGCAAUAUUACGGACG | -0.841 ± 0.2 | -2.44 ± 0.18
CUAGAGCAAUAUUACGGAUA | -1.44 ± 0.4 | –
UUUGAGCAAUAUUACGGGCG | -2.16 ± 0.43 | -3.15 ± 0.42
GGAUAGCAAUAUUACGACUC | 0.298 ± 0.23 | -0.498 ± 0.16
AGAAAGCAAUAUUACGAAUG | -2.25 ± 0.19 | -2.38 ± 0.15
GAAGAGCAAUAUUACGGUGG | -3.17 ± 0.32 | -4.19 ± 0.33
GGGCAGCAAUAUUACGAUUA | -1.63 ± 0.15 | -1.27 ± 0.14
AGGAAGCAAUAUUACGGCGA | -0.301 ± 0.13 | -0.209 ± 0.097
CAAGAGCAAUAUUACGCGUG | -1.6 ± 0.16 | -4.13 ± 0.3
CAUAAGCAAUAUUACGAAAC | -2.38 ± 0.45 | -3.31 ± 0.39
UGACAGCAAUAUUACGACGA | 0.355 ± 0.13 | -0.0144 ± 0.099
GGGGAGCAAUAUUACGAUUA | -1.58 ± 0.22 | -2.23 ± 0.23
UGUAAGCAAUAUUACGUUGU | -2.98 ± 0.29 | -3.79 ± 0.21

Sequence | self-splicing fitness (ln) (37 °C) | self-splicing fitness (ln) (30 °C)
UGAAAGCAAUAUUACGUAGG | -0.459 ± 0.14 | -0.728 ± 0.095
GUGUAGCAAUAUUACGCGUU | -0.621 ± 0.17 | –
GACUAGCAAUAUUACGUGAA | -0.302 ± 0.083 | -0.567 ± 0.056
CCGAAGCAAUAUUACGCGUG | -2.56 ± 0.13 | -3.05 ± 0.14
GGACAGCAAUAUUACGUUUA | 0.258 ± 0.077 | -0.44 ± 0.059
UUCCAGCAAUAUUACGUAGA | -0.502 ± 0.093 | -0.592 ± 0.076
AAAUAGCAAUAUUACGCACG | -0.271 ± 0.12 | -1.59 ± 0.13
UGAAAGCAAUAUUACGCUAG | 0.503 ± 0.15 | -1.59 ± 0.15
GUUAAGCAAUAUUACGCCAU | -1.26 ± 0.3 | -2.03 ± 0.27
GGUCAGCAAUAUUACGAAAU | 0.351 ± 0.12 | -1.15 ± 0.097
CAUGAGCAAUAUUACGGCGA | -2.53 ± 0.25 | -3.34 ± 0.31
AGACAGCAAUAUUACGAUGU | -0.886 ± 0.088 | -3.43 ± 0.12
AUUAAGCAAUAUUACGUUGG | -2.23 ± 0.28 | -3.38 ± 0.28
AAGCAGCAAUAUUACGUGUC | -2.01 ± 0.15 | -2.94 ± 0.15
UGAAAGCAAUAUUACGACUG | 0.249 ± 0.12 | 0.192 ± 0.1
CGUGAGCAAUAUUACGGCUA | -1.12 ± 0.14 | -1.68 ± 0.14
CAGAAGCAAUAUUACGCAGU | -3.48 ± 0.23 | -2.53 ± 0.19
GUACAGCAAUAUUACGACAG | -1.94 ± 0.21 | -3.31 ± 0.24
UCUAAGCAAUAUUACGGAGC | -1.68 ± 0.37 | –
UCGAAGCAAUAUUACGUUCG | -0.659 ± 0.19 | -1.54 ± 0.12
ACAGAGCAAUAUUACGCGGA | -2.62 ± 0.19 | -3.57 ± 0.29
ACUGAGCAAUAUUACGUGAG | -1.36 ± 0.085 | -1.82 ± 0.063
UCCAAGCAAUAUUACGCGGC | -2.94 ± 0.23 | -2.74 ± 0.23

Source: the supplement of paper PMC7877785
